# Source: the supplement of paper PMC10065799, “High-throughput profiling of sequence recognition by tyrosine kinases and SH2 domains using bacterial peptide display” (eLife, 2023)
# What was measured:
# [1] = molecular target: Fyn (UniProt P06241); assay: phosphorylation enrichment, bacterial display (enrichment ratio); higher = better substrate or ligand; peptides without Tyr show the background
# [2] = test system: c-Src; assay: as above
# [3] = molecular target: EPHB1 (UniProt P54762); assay: as above
# [4] = molecular target: Hck (UniProt P08631); assay: as above
# [5] = molecular target: FGFR1 (UniProt P11362); assay: as above
# [6] = test system: AncSZ; assay: as above
# [7] = molecular target: EPHB2 (UniProt P29323); assay: as above
# [8] = test system: Fer (mouse); assay: as above
# [9] = molecular target: Jak2 (UniProt O60674); assay: as above
# [10] = molecular target: MERTK (UniProt Q12866); assay: as above
# [11] = molecular target: Fes (UniProt P07332); assay: as above
# [12] = molecular target: FGFR3 (UniProt P22607); assay: as above
# [13] = test system: c-Abl (mouse); assay: as above
# [14] = molecular target: Grb2 SH2 (UniProt P62993); assay: SH2 binding enrichment of the phosphorylated peptide, bacterial display (enrichment ratio); higher = better substrate or ligand; peptides without Tyr show the background
# [15] = molecular target: SHP2-C SH2; assay: as above
# [16] = molecular target: c-Src SH2; assay: as above
# 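Throughout, for SH2 binding enrichment of the phosphorylated peptide, bacterial display: peptide library displayed on the E. coli surface as eCPX fusions, selected cells deep-sequenced, score is each peptide's frequency after selection divided by its frequency in the input.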
# 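Throughout, for phosphorylation enrichment, bacterial display: 11-residue human phosphosite peptides and single-mutation variants displayed on the E. coli surface, counted by deep sequencing, each peptide's frequency after selection divided by its frequency in the unselected input library; frequency after pTyr selection over input frequency; kinase dosed for 20-30% of maximal phosphorylation in three min.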
# Chain of FGFR3 (P22607 whole entry, looked up): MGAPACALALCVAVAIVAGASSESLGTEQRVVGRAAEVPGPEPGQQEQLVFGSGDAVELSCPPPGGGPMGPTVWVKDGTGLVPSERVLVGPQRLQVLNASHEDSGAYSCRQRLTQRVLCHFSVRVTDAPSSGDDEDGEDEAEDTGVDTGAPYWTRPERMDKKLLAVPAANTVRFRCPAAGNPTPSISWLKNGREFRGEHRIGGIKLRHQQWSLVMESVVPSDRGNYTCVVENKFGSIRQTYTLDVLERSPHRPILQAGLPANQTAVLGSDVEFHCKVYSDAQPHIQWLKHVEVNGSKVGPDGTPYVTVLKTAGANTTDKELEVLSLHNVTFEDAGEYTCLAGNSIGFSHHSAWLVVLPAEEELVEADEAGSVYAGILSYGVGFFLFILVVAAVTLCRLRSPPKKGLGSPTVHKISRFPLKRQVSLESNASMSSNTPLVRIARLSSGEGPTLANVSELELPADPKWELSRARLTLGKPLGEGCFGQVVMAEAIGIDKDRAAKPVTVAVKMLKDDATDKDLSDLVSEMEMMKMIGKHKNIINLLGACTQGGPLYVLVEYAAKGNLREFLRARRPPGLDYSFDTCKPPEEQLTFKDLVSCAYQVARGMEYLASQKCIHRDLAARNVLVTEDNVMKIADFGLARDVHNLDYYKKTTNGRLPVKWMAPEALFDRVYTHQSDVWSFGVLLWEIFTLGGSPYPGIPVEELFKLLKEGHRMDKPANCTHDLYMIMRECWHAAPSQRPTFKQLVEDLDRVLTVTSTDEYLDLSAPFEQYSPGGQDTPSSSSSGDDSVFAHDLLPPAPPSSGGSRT
# Chain of FGFR1 (P11362 whole entry, looked up): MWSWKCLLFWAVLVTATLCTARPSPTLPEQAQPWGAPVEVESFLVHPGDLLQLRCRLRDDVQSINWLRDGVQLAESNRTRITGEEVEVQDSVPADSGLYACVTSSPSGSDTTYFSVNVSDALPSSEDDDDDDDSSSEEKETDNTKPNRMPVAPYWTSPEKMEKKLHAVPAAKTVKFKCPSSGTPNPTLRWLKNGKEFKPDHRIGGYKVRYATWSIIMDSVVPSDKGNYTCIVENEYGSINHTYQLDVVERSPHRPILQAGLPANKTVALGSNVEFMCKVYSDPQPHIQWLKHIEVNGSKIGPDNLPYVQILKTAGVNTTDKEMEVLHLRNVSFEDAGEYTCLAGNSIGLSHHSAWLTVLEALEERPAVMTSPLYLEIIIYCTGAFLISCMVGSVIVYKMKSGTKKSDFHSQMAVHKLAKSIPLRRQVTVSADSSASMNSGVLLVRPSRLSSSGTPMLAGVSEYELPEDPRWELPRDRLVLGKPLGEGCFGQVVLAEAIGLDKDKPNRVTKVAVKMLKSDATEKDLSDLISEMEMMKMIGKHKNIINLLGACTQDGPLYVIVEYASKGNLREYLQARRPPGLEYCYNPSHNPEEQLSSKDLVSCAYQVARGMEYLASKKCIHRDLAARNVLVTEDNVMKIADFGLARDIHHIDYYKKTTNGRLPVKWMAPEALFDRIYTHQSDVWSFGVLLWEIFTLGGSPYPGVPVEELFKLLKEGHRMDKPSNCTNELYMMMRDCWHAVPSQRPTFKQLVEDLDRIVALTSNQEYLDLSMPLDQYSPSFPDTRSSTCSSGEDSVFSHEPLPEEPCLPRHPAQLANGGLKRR
# Chain of MERTK (Q12866 whole entry, looked up): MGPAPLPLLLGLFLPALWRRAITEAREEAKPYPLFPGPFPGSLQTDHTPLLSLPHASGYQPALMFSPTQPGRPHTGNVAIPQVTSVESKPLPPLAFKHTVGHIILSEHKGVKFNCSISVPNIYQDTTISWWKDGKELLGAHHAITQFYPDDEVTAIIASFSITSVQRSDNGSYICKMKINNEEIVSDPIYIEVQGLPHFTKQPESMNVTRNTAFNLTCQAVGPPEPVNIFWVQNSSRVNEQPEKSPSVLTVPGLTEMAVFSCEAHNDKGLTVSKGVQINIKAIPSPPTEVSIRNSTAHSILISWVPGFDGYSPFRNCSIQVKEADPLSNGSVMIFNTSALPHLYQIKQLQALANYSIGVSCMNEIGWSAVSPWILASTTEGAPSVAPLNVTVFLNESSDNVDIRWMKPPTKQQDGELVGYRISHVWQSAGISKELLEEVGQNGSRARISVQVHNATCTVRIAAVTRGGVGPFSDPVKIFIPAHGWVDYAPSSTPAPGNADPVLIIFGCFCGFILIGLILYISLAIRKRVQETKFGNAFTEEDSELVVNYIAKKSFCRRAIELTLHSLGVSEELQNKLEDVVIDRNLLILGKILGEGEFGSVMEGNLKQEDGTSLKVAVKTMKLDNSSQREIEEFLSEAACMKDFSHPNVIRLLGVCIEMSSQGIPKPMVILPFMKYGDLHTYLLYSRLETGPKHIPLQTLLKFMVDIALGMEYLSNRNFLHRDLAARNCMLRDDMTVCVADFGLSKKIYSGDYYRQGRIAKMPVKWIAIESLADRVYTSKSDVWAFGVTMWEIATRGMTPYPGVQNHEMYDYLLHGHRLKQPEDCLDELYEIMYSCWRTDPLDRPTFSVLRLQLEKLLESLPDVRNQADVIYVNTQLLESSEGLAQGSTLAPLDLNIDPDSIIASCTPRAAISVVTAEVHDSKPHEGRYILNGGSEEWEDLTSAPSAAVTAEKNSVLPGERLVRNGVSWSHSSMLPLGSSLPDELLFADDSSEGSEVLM
# Chain of EPHB1 (P54762 whole entry, looked up): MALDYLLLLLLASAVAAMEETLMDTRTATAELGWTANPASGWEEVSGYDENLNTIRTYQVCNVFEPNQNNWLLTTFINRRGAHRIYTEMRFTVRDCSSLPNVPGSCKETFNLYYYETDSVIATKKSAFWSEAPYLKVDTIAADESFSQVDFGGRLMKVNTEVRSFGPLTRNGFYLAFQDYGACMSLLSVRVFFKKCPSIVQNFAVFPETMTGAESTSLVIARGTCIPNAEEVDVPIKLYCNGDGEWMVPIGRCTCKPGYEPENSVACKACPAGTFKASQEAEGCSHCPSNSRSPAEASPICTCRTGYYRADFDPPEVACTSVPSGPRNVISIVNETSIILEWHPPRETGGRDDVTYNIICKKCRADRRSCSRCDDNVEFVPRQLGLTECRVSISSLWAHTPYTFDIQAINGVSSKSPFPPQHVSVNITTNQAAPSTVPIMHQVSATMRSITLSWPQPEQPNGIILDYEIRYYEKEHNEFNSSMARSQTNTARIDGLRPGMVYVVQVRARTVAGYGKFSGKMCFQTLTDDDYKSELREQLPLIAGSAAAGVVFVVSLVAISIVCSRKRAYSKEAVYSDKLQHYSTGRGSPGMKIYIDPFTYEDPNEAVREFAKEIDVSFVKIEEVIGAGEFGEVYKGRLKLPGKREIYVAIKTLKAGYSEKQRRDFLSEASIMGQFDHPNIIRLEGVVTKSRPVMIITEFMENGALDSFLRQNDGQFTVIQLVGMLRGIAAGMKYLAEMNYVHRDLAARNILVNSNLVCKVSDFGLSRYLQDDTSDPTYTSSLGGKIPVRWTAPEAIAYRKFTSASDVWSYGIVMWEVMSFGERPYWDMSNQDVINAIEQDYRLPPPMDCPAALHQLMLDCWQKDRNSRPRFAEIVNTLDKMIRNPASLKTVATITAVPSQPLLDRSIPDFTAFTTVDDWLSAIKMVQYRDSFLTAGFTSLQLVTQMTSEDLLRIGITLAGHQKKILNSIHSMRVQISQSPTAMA
# Chain of Fyn (P06241 whole entry, looked up): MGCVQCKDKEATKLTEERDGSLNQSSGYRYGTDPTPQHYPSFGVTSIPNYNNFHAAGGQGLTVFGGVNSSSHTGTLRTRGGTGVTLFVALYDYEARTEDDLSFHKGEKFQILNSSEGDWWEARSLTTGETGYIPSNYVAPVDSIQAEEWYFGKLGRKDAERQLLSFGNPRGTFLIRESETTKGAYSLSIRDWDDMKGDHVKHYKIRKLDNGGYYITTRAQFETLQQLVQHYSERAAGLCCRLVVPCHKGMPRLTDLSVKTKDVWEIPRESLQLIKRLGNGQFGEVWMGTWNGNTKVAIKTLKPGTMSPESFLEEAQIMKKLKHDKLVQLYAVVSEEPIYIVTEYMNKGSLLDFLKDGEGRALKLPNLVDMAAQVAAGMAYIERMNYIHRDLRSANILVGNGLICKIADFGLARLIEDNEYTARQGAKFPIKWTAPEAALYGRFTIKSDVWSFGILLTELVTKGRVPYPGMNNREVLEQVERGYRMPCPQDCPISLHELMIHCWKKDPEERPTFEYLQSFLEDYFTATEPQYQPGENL
# Chain of Hck (P08631 whole entry, looked up): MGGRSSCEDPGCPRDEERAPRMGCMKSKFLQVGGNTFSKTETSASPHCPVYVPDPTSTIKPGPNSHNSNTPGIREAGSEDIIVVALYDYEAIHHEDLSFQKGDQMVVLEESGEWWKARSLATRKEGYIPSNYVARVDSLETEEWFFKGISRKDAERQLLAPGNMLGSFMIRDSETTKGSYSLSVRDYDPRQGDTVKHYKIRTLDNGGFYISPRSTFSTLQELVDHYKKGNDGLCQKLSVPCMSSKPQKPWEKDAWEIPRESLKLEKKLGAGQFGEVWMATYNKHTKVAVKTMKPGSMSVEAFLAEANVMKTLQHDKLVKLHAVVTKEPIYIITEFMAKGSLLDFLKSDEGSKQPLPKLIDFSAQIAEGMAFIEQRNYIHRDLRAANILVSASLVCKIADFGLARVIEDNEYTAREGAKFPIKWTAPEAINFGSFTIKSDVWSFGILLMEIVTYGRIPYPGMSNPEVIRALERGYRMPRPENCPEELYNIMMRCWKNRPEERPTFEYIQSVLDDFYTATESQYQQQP
# Chain of Grb2 SH2 (P62993 whole entry, looked up): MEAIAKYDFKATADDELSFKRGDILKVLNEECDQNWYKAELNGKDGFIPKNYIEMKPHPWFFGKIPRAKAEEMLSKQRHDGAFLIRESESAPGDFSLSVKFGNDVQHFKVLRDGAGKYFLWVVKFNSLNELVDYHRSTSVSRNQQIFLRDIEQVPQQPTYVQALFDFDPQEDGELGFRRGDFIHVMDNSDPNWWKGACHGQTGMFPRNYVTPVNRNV
Sequence,phosphorylation enrichment [1],phosphorylation enrichment [2],phosphorylation enrichment [3],phosphorylation enrichment [4],phosphorylation enrichment [5],phosphorylation enrichment [6],phosphorylation enrichment [7],phosphorylation enrichment [8],phosphorylation enrichment [9],phosphorylation enrichment [10],phosphorylation enrichment [11],phosphorylation enrichment [12],phosphorylation enrichment [13],SH2 binding enrichment [14],SH2 binding enrichment [15],SH2 binding enrichment [16]
VEKEKYVSFIS [JMJD1C_Y596_M591V_YF],0.477,0.396,0.467,0.577,0.493,0.762,0.52,0.36,0.755,0.408,0.796,0.793,0.521,0.708,0.454,0.633
ESSKAYERDLS [TTC37_Y1074_A1077D],0.419,0.402,0.394,0.456,0.384,0.735,0.488,0.519,0.499,0.432,0.771,0.524,0.533,0.681,0.715,0.471
KSAAIYNPVIF [RHO_Y301_YF],5.56,4.71,0.559,8.01,0.567,0.757,0.519,16.1,0.634,4.6,0.939,0.557,1.11,0.721,0.75,0.589
LNFNEYFRDLN [HPRT1_Y198_D194N_YF],0.866,1.15,1.23,0.99,1.18,1.78,1.01,1.03,2.25,0.972,2.1,0.803,2.15,1.11,0.955,0.608
SSSAIYDNPNL [DCP1B_Y191],8.1,5.76,12.2,9.85,0.411,0.898,15.6,9.27,0.632,8.1,0.737,0.457,22.5,0.688,0.53,0.706
GLSDLYVKIHL [SYT2_Y309_P308L],0.623,0.495,0.826,0.613,0.452,1.26,0.615,0.705,1.38,0.428,1.45,0.804,0.94,1.04,0.599,0.567
RHSGSYLVTSV [APC_Y2838],0.431,0.463,0.505,0.616,0.438,0.759,0.559,0.51,0.963,0.682,0.863,0.451,0.611,0.791,0.914,0.604
QFFQGYFNNNF [ZNF236_Y644_S643G],0.42,0.721,0.545,0.574,0.643,1.15,0.496,0.356,1.55,0.58,1.2,0.845,1.23,1.63,1.51,1.28
VGTTAYMAPEA [IRAK4_Y354],0.407,0.414,0.385,0.434,0.418,0.707,0.379,0.452,0.689,0.354,0.893,0.517,0.537,0.918,0.692,0.568
KLIETCFSKNY [PLP1_Y50_Y50C],0.456,0.524,0.576,0.621,0.473,1.07,0.555,0.47,1.13,0.474,1.38,0.739,0.973,0.748,0.652,0.447
YFCRWYRNRKS [EREG_Y144],0.618,0.753,0.621,0.741,0.61,0.864,0.572,0.478,0.683,0.889,0.635,0.515,0.714,0.716,0.623,0.571
GISDEYHMIRH [GCDH_Y398_V400M],0.58,0.735,0.446,0.891,7.6,1.07,0.522,0.402,0.575,0.349,0.714,4.43,0.491,0.931,0.587,0.781
REDVFYTSKLW [AKR1C2_Y81_I79V],0.89,0.662,0.759,0.802,0.742,1.52,0.631,0.422,1.41,1.3,1.45,1.05,1.25,0.807,0.729,0.511
CTTIFYNFMCN [TP53_Y234_H233Y_YF],0.592,1.69,0.686,0.562,1.05,1.12,0.634,1.05,1.28,1.93,1.42,1.12,0.597,2.09,1.8,1.45
VRFMAYTDEIF [F8_Y450_T454I],0.434,0.434,0.598,0.436,0.608,1.21,0.595,0.65,1.07,0.697,1.21,0.753,1.23,1.07,0.72,0.554
PVQAADQKVVA [HBB_Y131_Y131D],0.62,0.605,0.508,0.576,0.654,0.918,0.718,0.482,0.893,0.593,1.18,0.816,0.781,0.731,0.733,0.388
TNGFTCGSSHQ [MANEA_Y331_Y331C],0.618,0.392,0.451,0.477,0.46,0.608,0.486,0.412,0.663,0.435,0.836,0.545,0.728,0.791,0.642,0.544

Sequence,phosphorylation enrichment [1],phosphorylation enrichment [2],phosphorylation enrichment [3],phosphorylation enrichment [4],phosphorylation enrichment [5],phosphorylation enrichment [6],phosphorylation enrichment [7],phosphorylation enrichment [8],phosphorylation enrichment [9],phosphorylation enrichment [10],phosphorylation enrichment [11],phosphorylation enrichment [12],phosphorylation enrichment [13],SH2 binding enrichment [14],SH2 binding enrichment [15],SH2 binding enrichment [16]
AGQEEYSAMRD [HRAS_Y64],0.462,0.456,0.507,0.498,0.477,0.879,0.547,0.429,0.788,0.418,0.931,0.591,0.678,0.816,0.643,0.679
ACLSLYGGFVE [MVD_Y164_R161L],5.43,4.75,1.21,3.83,0.681,1.67,1.13,0.817,1.92,0.607,2.02,1.31,1.46,0.834,0.661,0.464
EKMWSYMKSAE [GRIA3_Y705],0.802,0.467,0.511,0.365,0.411,0.939,0.4,0.398,0.719,0.381,0.949,0.75,0.547,0.972,0.86,0.394
LKGQVYILGRE [ASS1_Y359],0.679,0.438,0.522,0.369,0.406,1.09,0.949,0.756,1.17,0.56,1.26,1.07,1.47,0.836,0.444,0.31
KSIQLYDTPYE [SHB_Y297_G293S],0.827,0.986,11.6,1.76,0.521,1.29,15.8,3.02,0.921,4.79,1.07,0.643,1.03,1.02,0.626,4.1
FDNPVYQKTTE [LDLR_Y828],0.759,0.531,0.605,0.933,0.5,0.737,0.497,0.424,0.549,0.453,0.864,0.498,0.438,0.993,1.09,0.578
RKKEEYKMAPY [F8_Y1990_L1994P],0.939,0.816,0.583,1.06,1.18,1.16,0.865,0.926,1.1,0.933,1.33,0.941,1.03,1.32,1.02,0.721
VIKDKYPKVRF [APTX_Y209_A212V_YF],0.278,0.452,0.4,0.443,0.444,0.493,0.373,0.448,0.734,0.4,0.591,0.599,0.56,1.4,1.4,1.04
MSLDQYSPSFP [FGFR1_Y776_P772S],0.551,0.454,0.374,0.481,0.468,0.68,0.465,0.429,0.929,0.44,0.782,0.549,0.598,0.825,0.646,0.45
VMLENYSNLLS [ZFP69_Y109_V113L],0.396,0.428,1.97,0.422,0.559,0.66,0.864,0.372,0.699,0.388,0.832,0.586,0.595,0.899,0.928,0.778
MSPPGYKLVNG [GJA1_Y286_T290N],0.412,0.461,0.403,0.448,0.58,0.429,0.38,0.315,0.564,0.412,0.561,0.438,0.52,0.837,0.609,0.439
LNLKDYNLVGG [GNAQ_Y356_E355D],0.481,0.482,0.491,0.538,0.523,0.582,0.428,0.464,0.508,0.412,0.665,0.565,0.465,0.873,0.452,0.71
EELLRYAIVTP [POC5_Y37_H36R],0.456,0.444,0.669,0.439,0.514,0.928,0.637,0.6,0.867,3.32,0.922,0.615,0.62,0.871,14,9.68
DENWFYTRAAF [RPS19_Y54_S59F],0.47,0.534,0.681,0.629,0.586,1.25,0.594,0.571,1.48,0.55,1.32,0.786,0.868,0.73,0.96,0.571
KKDGPYDVVVL [PARK7_Y67_E64D],0.562,0.569,0.991,0.507,0.449,0.906,0.53,3.37,0.608,0.589,0.9,0.602,0.629,0.855,0.895,1.07
FVHDNYVIQRT [CPS1_Y1450_R1453Q],0.425,0.481,2.19,0.436,0.481,0.788,1.07,0.694,0.7,0.469,0.672,0.567,0.52,0.971,0.596,0.624
